Three molecules from paper PMC7497641, “Neurotropic activity and safety of methylene-cycloalkylacetate (MCA) derivative 3-(3-allyl-2-methylenecyclohexyl) propanoic acid” (ACS Chemical Neuroscience, 2020) can be followed below.

Assay [1] concerns the target T1, Nicotinic acetylcholine Receptor alpha-4 beta-2 (nAChR(a4/b2)) (Homo sapiens, UniProt P17787+P43681).
T1 construct: host or cells: unnamed DiscoverX cell line
Put plainly: cell-based. Particulars: Blocker; Ion channel; read-out: RC50 (the source's name).

Assay [2] has as its target Gamma-aminobutyric acid Receptor A (GABAA) (Homo sapiens, UniProt P14867+P18507+P47870). Put plainly: SAFETYscan Ion channel assay. It is filed as cell-based. The conditions noted are these: Blocker, read-out: RC50 (the source's name).
The subject of assay [3] is PGE2 production in PC12 cells. Put plainly: PGE2 production measured by ELISA. The conditions noted are these: 50 ng/mL NGF; 24 h. On the technique in general: An ELISA detects its analyte on a solid surface through an enzyme-linked reagent.
Assay [4] has as its system PC12 dopaminergic cell cultures. Nature of the assay: PC12 neurotropic (neurite outgrowth) assay. It counts as cell-based, rat. The conditions noted are these: for neurite outgrowth, Df value: NGF alone 50 ng/mL.
Assay [5] relates to adult rat spinal cord primary cultures. Put plainly: Spinal cord neurons neurite outgrowth assay. It counts as cell-based. Particulars: NGF 50 ng/mL. The procedure: To study the effect of HU-MCA-13 on adult rat spinal cord primary cultures in vitro, we developed a purification procedure that yields enriched different types of spinal cord neuronal cultures. This neurotropic assay was performed using vehicle 1% DMSO in DMEM as control and 10 μM HU-MCA-13. The results in Figure 1 bottom row and Figure 3D clearly indicate that in control there was very poor spontaneous neurite outgrowth of a total length of about 180 μm and NGF induced neurite outgrowth to a total length of about 800 μm. Similarly, HU-MCA-13 induced a neurite outgrowth of 600 μm. Figure 2B indicates cytoskeletal-tubulin protein expression in the cultured neurons. These findings further extend the neurotropic effect of HU-MCA-13 to spinal cord neurons, in addition to DRGs and PC12 cells.
Spinal cords were isolated from adult rats (4–6 months old), and the meninges were removed from the spinal cord. The spinal cord was then cut into small pieces and collected in cold Hibernate A (Brainbits, Springfield, IL, USA), glutamine (0.5 mM), and B27 (Invitrogen, Carlsbad, CA). […] Neurite outgrowth was measured and presented as mean length of a neurite (microns). To measure neuronal survival, 450 cells were counted in 10 randomly chosen microscope fields of a known area in each of the three dishes per condition using a 20× objective and phase-contrast optics. […]

The subject of assay [6] is dorsal root ganglion (DRG) sensory neurons. Nature of the assay: DRG neurite outgrowth assay. It is filed as cell-based, mice. The conditions noted are these: NGF 50 ng/mL, DRG explants, 5 days. An excerpt: In the second step, we study the effect of HU-MCA-13 on ex-vivo sensory neuronal cultures obtained from dissociated dorsal root ganglia (DRG), a model in which the neurons tend to extend neurites in culture at a high rate, and all neurite outgrowths are axons, as confirmed by immune staining for cytoskeletal-specific proteins.[27] […] By contrast, NGF induced a strong, 3.5-fold increase in neurite outgrowth to a value of 700 μm (Figure 1 and Figure 3B) and a ratio of 8.5 between the area covered by neurites and that covered by the DRG ganglia (Figure 3C). Similarly, HU-MCA-13 induced a 2.5 fold increase in neurite outgrowth to a value of about 500 μm (Figure 1 and Figure 3B) and a ratio of 5.4 between the area covered by neurites and that covered by the DRG ganglia (Figure 3C). […] These experiments extend the neurotropic effect of MCA-13 observed with PC12 dopaminergic neuronal cultures to DRG sensory neurons.
To perform these experiments, 10 DRGs were excised under sterile conditions and transferred to Dulbecco’s Modified Eagle Medium (DMEM) containing 0.25% Type IV collagenase in at 37 °C for 45 min, followed by a 20 min incubation with 0.025% trypsin in DMEM, to digest the associated connective tissue surrounding the neurons. After plating the ganglia onto collagen (50 μg/mL)/laminin mixture (5 μg/mL)-coated tissue culture wells for 24 h, DRG neurons were cultured for additional 1–7 days in fresh Neurobasal A/B27 medium[27] containing either 50 ng/mL NGF (positive control), medium containing 1% DMSO (negative control) or 5 μM MCA-13. The living cultures were photographed and thereafter, the ganglia were immunostained for β tubulin III and again photographed using a fluorescent microscope. A researcher blinded to the experimental conditions performed image analysis, and the neurite outgrowth length (in micrometers) was measured.[50]

T1 sequence (P43681 29-627 limits assumed): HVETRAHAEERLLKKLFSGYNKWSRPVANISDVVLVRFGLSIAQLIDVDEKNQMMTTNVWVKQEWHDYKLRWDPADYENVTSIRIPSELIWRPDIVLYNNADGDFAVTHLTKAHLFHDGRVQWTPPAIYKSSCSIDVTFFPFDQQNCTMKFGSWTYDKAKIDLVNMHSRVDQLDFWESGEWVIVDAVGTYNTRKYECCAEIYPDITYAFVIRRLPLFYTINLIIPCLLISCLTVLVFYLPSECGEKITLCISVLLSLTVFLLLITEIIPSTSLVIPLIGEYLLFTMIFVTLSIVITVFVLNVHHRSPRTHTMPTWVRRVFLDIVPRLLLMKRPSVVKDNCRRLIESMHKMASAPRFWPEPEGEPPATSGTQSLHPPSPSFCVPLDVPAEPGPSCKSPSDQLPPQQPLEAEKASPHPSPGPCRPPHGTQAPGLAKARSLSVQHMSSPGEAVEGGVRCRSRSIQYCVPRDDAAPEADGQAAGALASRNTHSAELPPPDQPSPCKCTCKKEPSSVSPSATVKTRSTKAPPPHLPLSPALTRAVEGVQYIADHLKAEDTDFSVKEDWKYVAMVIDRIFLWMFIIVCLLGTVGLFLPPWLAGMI
T1 sequence (P17787 26-502): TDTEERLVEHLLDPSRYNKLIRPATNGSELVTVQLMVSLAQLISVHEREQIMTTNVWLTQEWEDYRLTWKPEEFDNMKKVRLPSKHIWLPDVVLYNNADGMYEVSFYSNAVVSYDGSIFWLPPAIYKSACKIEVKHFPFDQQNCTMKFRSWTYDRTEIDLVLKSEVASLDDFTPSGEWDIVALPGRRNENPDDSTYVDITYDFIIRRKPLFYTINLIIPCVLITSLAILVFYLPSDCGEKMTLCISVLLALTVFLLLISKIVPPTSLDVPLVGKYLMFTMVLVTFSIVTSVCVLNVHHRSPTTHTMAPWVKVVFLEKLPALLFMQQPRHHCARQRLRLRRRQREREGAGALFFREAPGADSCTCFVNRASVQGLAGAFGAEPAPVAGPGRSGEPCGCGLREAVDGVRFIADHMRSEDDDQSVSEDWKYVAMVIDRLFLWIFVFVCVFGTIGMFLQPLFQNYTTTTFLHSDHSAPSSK
Gamma-aminobutyric acid Receptor A (GABAA), sequence (P14867 28-456): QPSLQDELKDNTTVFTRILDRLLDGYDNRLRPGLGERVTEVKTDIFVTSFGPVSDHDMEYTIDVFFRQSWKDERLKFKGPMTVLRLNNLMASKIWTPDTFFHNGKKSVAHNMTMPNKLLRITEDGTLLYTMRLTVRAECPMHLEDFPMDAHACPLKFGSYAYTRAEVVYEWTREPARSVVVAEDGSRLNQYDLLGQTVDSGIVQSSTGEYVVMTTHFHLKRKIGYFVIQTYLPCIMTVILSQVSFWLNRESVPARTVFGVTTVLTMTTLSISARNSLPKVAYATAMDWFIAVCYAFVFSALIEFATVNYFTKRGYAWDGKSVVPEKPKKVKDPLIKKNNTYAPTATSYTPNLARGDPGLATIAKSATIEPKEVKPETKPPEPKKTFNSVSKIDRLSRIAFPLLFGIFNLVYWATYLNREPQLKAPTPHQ
Gamma-aminobutyric acid Receptor A (GABAA), sequence (P47870 26-512): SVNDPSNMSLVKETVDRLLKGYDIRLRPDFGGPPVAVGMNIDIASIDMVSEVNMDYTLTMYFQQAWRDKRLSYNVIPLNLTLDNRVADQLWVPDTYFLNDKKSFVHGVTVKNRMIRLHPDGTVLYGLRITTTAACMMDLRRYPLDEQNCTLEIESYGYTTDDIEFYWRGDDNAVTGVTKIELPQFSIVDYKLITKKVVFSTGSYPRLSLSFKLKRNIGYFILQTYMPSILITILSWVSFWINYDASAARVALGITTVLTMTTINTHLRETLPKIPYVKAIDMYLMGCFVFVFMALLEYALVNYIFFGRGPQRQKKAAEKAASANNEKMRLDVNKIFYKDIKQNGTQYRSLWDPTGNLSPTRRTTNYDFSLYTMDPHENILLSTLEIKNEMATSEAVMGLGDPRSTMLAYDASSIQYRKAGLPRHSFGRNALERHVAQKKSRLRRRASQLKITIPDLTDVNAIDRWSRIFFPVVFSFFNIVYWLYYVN
Gamma-aminobutyric acid Receptor A (GABAA), sequence (P18507 40-475): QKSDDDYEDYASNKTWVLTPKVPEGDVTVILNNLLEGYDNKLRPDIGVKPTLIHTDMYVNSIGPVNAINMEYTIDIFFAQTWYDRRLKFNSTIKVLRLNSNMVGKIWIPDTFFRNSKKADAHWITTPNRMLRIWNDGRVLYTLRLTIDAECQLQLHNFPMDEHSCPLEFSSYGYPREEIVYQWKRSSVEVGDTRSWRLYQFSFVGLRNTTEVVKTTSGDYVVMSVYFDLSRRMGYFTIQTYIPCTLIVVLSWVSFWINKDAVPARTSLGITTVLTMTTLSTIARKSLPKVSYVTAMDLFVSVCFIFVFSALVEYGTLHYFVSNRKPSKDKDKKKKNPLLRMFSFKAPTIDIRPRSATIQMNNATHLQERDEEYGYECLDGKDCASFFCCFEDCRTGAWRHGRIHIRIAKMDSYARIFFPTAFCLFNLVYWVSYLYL

Regarding “Dihydro-AY-erythroidine [reference compound]”, the IC50 in assay [1] was 0.707 µM.
In the case of Picrotoxin, in assay [2], the IC50 came out at 5.92 µM.

B1: NGF: Tissue culture grade mouse β-nerve growth factor, neurotrophin used as positive control (protein, UniProt P01139 122-241, looked up)
Beta-nerve growth factor: SSTHPVFHMGEFSVCDSVSVWVGDKTTATDIKGKEVTVLAEVNINNSVFRQYFFETKCRASNPVESGCRGIDSKHWNSYCTTTHTFVKALTTDEKQAAWRFIRIDTACVCVLSRKATRRG
modifications: Beta-nerve growth factor
notes: Tissue culture grade mouse β-nerve growth factor, neurotrophin used as positive control
With B1, the “production of PGE2” value in assay [3] was “significantly increased”. Besides, in assay [4] (250 nM K252a, 10 μM HU-MCA-13), the “neurotropic effect in the presence of Trk A inhibitor K252a” value is reported as “abolished”. Besides, the “neurite outgrowth, Df value” in assay [4] (2 days) was determined as 0.54. The “neurite outgrowth, Df value” in assay [4] (7 days) was found to be 0.4. Further, in assay [4] (low dose of NGF 1 ng/mL), the neurite outgrowth was 10% and the “neurite outgrowth, Df” value was 0.05. Further, the “neurite outgrowth total length” value in assay [5] is “about 800 μm”. In assay [6], the neurite outgrowth length turned out to be 700 μm; the “ratio between the area covered by neurites and that covered by the DRG ganglia” value is reported as 8.5. For the same molecule, the “fold increase in neurite outgrowth” value in assay [6] (versus control medium) was 3.5 fold.
